This passage reports Km and kcat results from paper doi:10.1101/2024.07.05.601840v1.

What all share (assay): purified protein
Substrate in data set [1]: C/C=C/C(=O)SCCNC(=O)CCNC(=O)[C@H](O)C(C)(C)COP(=O)(O)OP(=O)(O)OC[C@H]1O[C@@H](n2cnc3c(N)ncnc32)[C@H](O)[C@@H]1OP(=O)(O)O
Substrate in data set [2]: C[C@@H](O)CC(=O)SCCNC(=O)CCNC(=O)[C@H](O)C(C)(C)COP(=O)(O)OP(=O)(O)OC[C@H]1O[C@@H](n2cnc3c(N)ncnc32)[C@H](O)[C@@H]1OP(=O)(O)O
As to conditions: dehydration, pH 6.5 MES-KOH, 20 mM KCl, 65°C.

Substrate in data set [3]: CCCCCCCC(=O)SCCNC(=O)CCNC(=O)[C@H](O)C(C)(C)COP(=O)(O)OP(=O)(O)OC[C@H]1O[C@@H](n2cnc3c(N)ncnc32)[C@H](O)[C@@H]1OP(=O)(O)O
As to conditions: 1 mM FcPF6, pH 6.5 HEPES-KOH, 20 mM KCl, 65°C.

Substrate in data set [4]: NC(=O)C1=CN([C@@H]2O[C@H](COP(=O)(O)OP(=O)(O)OC[C@H]3O[C@@H](n4cnc5c(N)ncnc54)[C@H](O)[C@@H]3O)[C@@H](O)[C@H]2O)C=CC1
The conditions noted are these: 0.2 mM INT, pH 7.5 HEPES-NaOH, 100 mM NaCl.

Substrate in data set [5]: CC(=O)CC(=O)SCCNC(=O)CCNC(=O)[C@H](O)C(C)(C)COP(=O)(O)OP(=O)(O)OC[C@H]1O[C@@H](n2cnc3c(N)ncnc32)[C@H](O)[C@@H]1OP(=O)(O)O
Format: biochemical, Sulfolobus acidocaldarius. The conditions noted are these: thiolytic cleavage, 0.2 mM CoA, 20 mM MgCl2, pH 8, 23°C.

Substrate in data set [6]: CC(C)(COP(=O)(O)OP(=O)(O)OC[C@H]1O[C@@H](n2cnc3c(N)ncnc32)[C@H](O)[C@@H]1OP(=O)(O)O)[C@@H](O)C(=O)NCCC(=O)NCCS
Format: biochemical, Sulfolobus acidocaldarius. The conditions noted are these: thiolytic cleavage, 0.1 mM AcAcCoA, 20 mM MgCl2, pH 8, 23°C.

[7] abbreviates: 0.3 mM NADPH, pH 7.5 HEPES-NaOH, 10 mM KCl, 70°C.
The mark [8] stands for this setting: hydration, pH 6.5 MES-KOH, 20 mM KCl, 65°C.

B1: ECR (Saci_1115) (Sulfolobus acidocaldarius DSM 639) (protein)
chain: MKAVILPGFKQGYKIDKNVQEPKAGKSEVVVKLRKAALCYRDLLQIQGFYPRSKYPLILGHEMVGEIEEVGEGVEGFKKGDIVTSLLYVPDWTCDNCKMGEEIYCNNRQLYAQELDGFFAERILVKANSLVKVPPGVSDEGAVVVPCVAAMIYRGLKRANVKQGDIVLVTGAGGGVGIHALQVAKALGAKVVGVTSEESKAKIVGKFSDYVVVGNKFAEEVRKGFGEPSIVVDNVGGPTLDESMRSLKIGGKIVQVGNIDPSVNFSLRLGYLVLKNVELIGHAGATKKDIVDTLEMVRQNKITPVIGGEVSIEDFDKALDMLKDRKRHGKILIKP
On to B1, for which, in “purified protein [1]” (setting [7]), the Km stood at 96 ± 18 µM and the kcat was 0.256 s⁻¹.

B2: MaoC-HCD (Saci_1085) (Sulfolobus acidocaldarius DSM 639) (protein)
chain: MSEQGPFFEDFKVGQRFRSKVGRSLTDVDNIWFTLLTNNSNQIHFNRDYTEKYFSGEPFKGRLVVNGFLTLAIVAGLLVELTSQNGFMLGIENVKFMNPVFAGDTIYGEAEVIEARESKSRPGFGIVKIRTWGYNQRGEKIVEFDRVFMVRKRNSVWSGEKSTDKPQ
B2: in the data set “purified protein [1]” (setting [8]), the Km came to 222 ± 64 µM and the kcat amounted to 1.404 s⁻¹. Further, in “purified protein [2]”, the Michaelis-Menten constant (Km) was found to be 399 ± 127 µM and the kcat came to 0.549 s⁻¹.

B3: ACAD (Saci_1123) (Sulfolobus acidocaldarius DSM 639) (protein)
chain: MVLPFKTMEAFNVEISEKHELFRRAVREFMERDVAPYVEKGEKEGQIPKEVLEKAKELGLYGVSVPEEYGGQGGDSLMTVIAQEEMARVWAALSTRVAVGGLFMTPILLFGSEEQRKKYVTPVAKGDKVAAFANTEPQAGSDVAGMQSTAKKVNGKYILNARKIFITNGGIADYYVVTARTSPPEPNARWKGISMFVVEREWKGVKVLNRIETMGLKASNTAELAFEDVEVPAENLVGEEGMGFKYAMSTFDASRVGVAGQALGVAQAALEKMTNYSVQRSAFGSPLLGFQMVQEKIAETLTEVNAARLVTYWAATLYNKGMTNEAIIASSMAKYFATEVAERAAIRAITVHGGYGVATSTGVERLLRDVEIMKIYEGANDIQKLVILKETARRLFGIKM
On to B3, for which, in the data set “purified protein [3]”, the Km was determined as 15.1 ± 4 µM and the kcat worked out at 21.234 s⁻¹.

B4: ETF (Saci_0315) (Sulfolobus acidocaldarius DSM 639) (protein)
chain: MAELKIVVSIKQVPDADDLRIDPVTNNLVREGVPAVINPPDYHAIEEAIRLKERFGGKTMVLTMGPGQAEVALREALAMGIDEAYLISDRAMAGADTWATSYTVAKAVQRLGGADIILFGRRAVDGETEQVGPQTGKWLGIPVVAYVREIRSIENGKAVVVRTTEFEEEVIEVPLPAVFTILETANKPRQPDILSLIKAKTAKVTVWNKDDIKAEPTKIGLAGSPTKVIKVSPPPKTRKPEIIDGKKDPEKAAEWFLNKIYESLKEAESSLKEYVKPKAKVKVNSEIWVYIDHIGDRINKASLEILSEARRIADLMDTSVAGVVIGGESVKGIINEVYEYGADKVYFAETKGYDRYDNEVYTKALAKLAKKYKPEGIFFPGTRAARELASTSAIEIDTGLIADCTNFDVDDKGVLLATRPDFGGKEMSTIVCPRHRPVMVTTRAGVFMPLPRMPGRTGELIKEEIEDLYSRLKVLEYKNIEKRNILTEADIVVGVGRGIKSPENIKKFEEFATALGGVLGVSKPLADMGWYPKDRQIGQTGTTIRPKVYIALGVSGAVQHLVGILSSRKIGAINLDQSAPIFDNCDFGVVGDIFEIVPKMMELIKKKGE
Regarding B4, in “purified protein [4]”, the Km worked out at 39 ± 12 µM and the kcat was 0.784 s⁻¹.

B5: KT/DUF35 (Saci_1121/1120 complex) (Sulfolobus acidocaldarius DSM 639) (protein)
chain: MRNVAIVGTGHSKFGVRNDVSMQELAWEAVKQALEEANLEQKDIQYFVVGNVGMWSAEELPAVVVGEYCDLTPKGTMRVEAACATGSAAIRDAYQAIKAGEIDVALVVGVEQMSQSPNPQVIELIGRAGNYFWEFENFGLTFPGYYALYASAYMAKYGMKEEDLGSVAVKNHYYGARNPYAQFQKEITMEEYLKSKPVAQPLKLLDSSPITDGAAALILASEEVARKITDSPVWIVSQGVASGTANLSRRTDFTGIEASYVAAKEAYKRAKIDFSDAWRYFDVADVHDCFTIAEIMAYEDLGFAKRGEGHLMARNGETYIGGKIPVNVDGGLKAKGHPIGATGVSMAVSITRQLLYRAHKGTQADIRNGMGITHNVGGTGHYAYITIYSTRRPSS
Take B5: the Km in the data set “purified protein [5]” worked out at 65 ± 18.7 µM; in the data set “purified protein [6]”, 20 ± 4.1 µM. Besides, the kcat is 4.024 s⁻¹ in the data set “purified protein [5]” and 3.467 s⁻¹ in the data set “purified protein [6]”.

B6: KT (Saci_1114) (Sulfolobus acidocaldarius DSM 639) (protein)
chain: MLQEVYLVDFARTPFTRFTRKEPQKDPFYNLRPEELAGIVINRLIEKNGINPREIEEIVTGCALQVGEQWSFGGRHEVFASRLPYTIPSMAVDRQCASSITTVAIGAMEVATGMADIVLAGGVEKMSKTPMFDNPHIEPNMAFLTDPKYAEYDLTTGYVMGLTAERLAEEAKISREEMDRWSLRSHQMATKAIQEGYFKDEIIPFETEVEGKKITLTTDQSVRPDTSLEKLSQLPPAFRPNGTITAGNSAPLNSGSAYVLLMSKNALKRYGLTPMAKIRSFGFAGVPPAVMGKGPVPSSKKALEKANLNVKDISLWEINEAFAVVVLNAIKELGLDESTVNKRGGAIAIGHPLGATGARIVGTLARQLLIEGKDYGVATLCVGGGQGGAIVVERV
B6: the Km was 33 ± 10 µM in the data set “purified protein [5]” and 3.38 µM in “purified protein [6]”. Moreover, the kcat worked out at 1.2 s⁻¹ in “purified protein [5]” and 1.8 s⁻¹ in the data set “purified protein [6]”.

One may read the Km as the concentration of substrate that gives half-maximal velocity. In general, kcat refers to the maximal rate divided by the concentration of active sites.
